Data reported in article PMC13214397, “De novo biosynthesis of alpinetin enhanced by directed evolution of 5-O-methyltransferase” (Microbial Cell Factories, 2026).
Residue numbers refer to the chain shown, from its start. Numbers in names are those of the source.

Columns and labels:
[1] = substrate: O=C1C[C@@H](c2ccccc2)Oc2cc(O)cc(O)c21; test: initial rates of alpinetin formation by HPLC, Michaelis-Menten fit; format: biochemical, Streptomyces avermitilis; details: 2 mM SAM (fixed), 2 mM Mg2+, 50 uM enzyme, Tris-HCl pH 7.5, 37 °C, apparent initial velocities
Text: initial rates of alpinetin formation by HPLC, Michaelis-Menten fit on StrAOMT | we performed steady-state kinetic assays for StrAOMT wild-type and StrAOMT I41L/R171W/K212R

[2] = substrate: O=C1C[C@@H](c2ccccc2)Oc2cc(O)cc(O)c21; test: as above; format: biochemical, Streptomyces avermitilis; details: 2 mM SAM (fixed), 2 mM Mg2+, 50 uM enzyme, Tris-HCl pH 7.5, 37 °C, apparent initial velocities; remark: listed apart in the source
Text: initial rates of alpinetin formation by HPLC, Michaelis-Menten fit on StrAOMT | KM of StrAOMT wild type is twice that of the StrAOMT triple mutant

B1: StrAOMT (Streptomyces avermitilis MA-4680 = NBRC 14893) (protein)
chain: MSESQQLWDDVDDYFTTLLAPEDEALTAALRDSDAAGLPHINVAPNQGKLLQLLAEIQGARRILEIGTLGGYSTIWLGRALPRDGRLISFEYDAKHAEVARRNLARAGLDGISEVRVGPALESLPKLADERPEPFDLVFIDADKVNNPHYVEWALKLTRPGSLIVVDNVVRGGGVTDAGSTDPSVRGTRSALELIAEHPKLSGTAVQTVGSKGYDGFALARVLP
notes: recombinant from pET21b in E. coli BL21(DE3), codon-optimized
Km [1]: 313.2 µM | kcat [1]: 2.83e-05 s⁻¹

B2: StrAOMT (Streptomyces avermitilis MA-4680 = NBRC 14893; I41L/K212R/R171W) (protein)
chain: B1 chain with I41L, R171W, K212R
notes: as for B1
Km [2]: 156.4 µM | kcat [2]: 9.33e-05 s⁻¹
